# Data reported in PMC9884178 (Nature, 2022).
# Biological target: T1, WaaL from Cupriavidus metallidurans (CmWaaL) in MSP1E3D1 nanodiscs, as used for ELISA (Cupriavidus metallidurans CH34)
# T1 chain: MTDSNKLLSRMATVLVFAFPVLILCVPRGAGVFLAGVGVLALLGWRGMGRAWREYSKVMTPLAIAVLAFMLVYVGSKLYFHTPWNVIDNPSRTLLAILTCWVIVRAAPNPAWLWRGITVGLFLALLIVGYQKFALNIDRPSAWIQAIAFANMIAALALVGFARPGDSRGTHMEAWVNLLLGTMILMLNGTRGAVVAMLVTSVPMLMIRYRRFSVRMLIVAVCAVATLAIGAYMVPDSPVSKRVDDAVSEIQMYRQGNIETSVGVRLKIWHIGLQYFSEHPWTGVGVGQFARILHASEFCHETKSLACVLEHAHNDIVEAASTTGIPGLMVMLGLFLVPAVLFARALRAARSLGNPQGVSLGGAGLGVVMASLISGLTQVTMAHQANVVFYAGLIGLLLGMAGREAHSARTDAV
# Experiment: ELISA
binder,measurement,value
"WaB10 Fab (synthetic antigen binder against CmWaaL) (Fab, V domains shown) VH: EVQLVESGGGLVQPGGSLRLSCAASGFNVYSSSIHWVRQAPGKGLEWVAYISSYYGSTYYADSVKGRFTISADTSKNTAYLQMNSLRAEDTAVYYCARIMFKWVSPNMAFDYWGQGTLVTVSS VL: DIQMTQSPSSLSASVGDRVTITCRASQSVSSAVAWYQQKPGKAPKLLIYSASSLYSGVPSRFSGSRSGTDFTLTISSLQPEDFATYYCQQSYYSLVTFGQGTKVEIK",EC50,1.87 nM
